These results are taken from IntAct's records for PubMed 12732850.

B1: Humanin (Homo sapiens), Q8IVG9 (parent)
chain: MAPRGFSCLLLLTSEIDLPVKRRA

In this assay the parent is B1. As to conditions: with bax_human BAX.
C8P: the “effect of a mutation on the interaction” value is listed as “disrupting interaction strength”.
